Target: T1, Streptavidin (UniProt P22629 37-163, limits assumed)
T1 construct: also called negative antigen; irrelevant antigen
Test: ELISA, scFv

T1 sequence (P22629 37-163 limits assumed): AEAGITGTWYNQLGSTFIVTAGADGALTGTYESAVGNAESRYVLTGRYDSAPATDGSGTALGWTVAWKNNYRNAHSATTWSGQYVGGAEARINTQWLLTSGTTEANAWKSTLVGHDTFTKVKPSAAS

Binder	binding result
A-002 (scFv format) (scFv, V domains shown, scFv) VH: EVQLVESGGGLIQPGGSLRLSCAASGFTVSSNYMSWVRQAPGKGLEWVSVIYSGGSTYYADSVKGRFTISRDNSKNTLYLQMNSLRAEDTAVYYCARGNPYYYGDLQVNFDYWGQGTLVTVSS VL: QAVVTQEPSLTVSPGGTVTPTCGSSTGAVTSGNLPNWFQQKPGQAPRALIYSTSNKHSWTPARISGSLLGGKAALTLSGVQPEDEAEYYCLLYYGGAWVFGGGTKLTVL	no binding (tested: <0.025 or <0.05 RFU)
A-005 (scFv format) (scFv, V domains shown, scFv) VH: EVQLVESGGGLIQPGGSLRLSCAASGFTVSSNYMSWVRQAPGKGLEWVSVIYSGGSTYYADSVKGRFTISRDNSKNTLYLQMNSLRAEDTAVYYCARGNPYYYGDLQVNFDYWGQGTLVTVSS VL: QAVVTQEPSLTVSPGETVTLTCASSTGAVTSGYYPNWFQQRPGQAPRALIYSTSNKDSWTPARFSGSLLGGKAALTLSGVQPEDEAEYYCLLYYGGAWVFGGGTKLTVL	no binding (tested: <0.025 or <0.05 RFU)
A-001 (scFv format) (scFv, V domains shown, scFv) VH: EVQLVESGGGLVKPGGSLRLSCAASGFTFSSYSMNWVRQAPGKGLEWVSSISSSSSYIYYADSVKGRFTISRDNAKNSLYLQMNSLRAEDTAVYYCVRSIIVQALGITSVFDIWGQGTMVTVSS VL: AIRLTQSPSSLSASVGDRVTISCRASQIISNHLNWYQQKPGKAPKLLIYAASRLQTGVPSRFSGSGSETDYTLTISSLQPEDFATYYCQQSYSNPRTFGHGTKVEIK	no binding (tested: <0.025 or <0.05 RFU)
A-012 (scFv format) (scFv, V domains shown, scFv) VH: EVQLLESGGGLIQPGGSLRLSCAVSGFTVSSNYMSWVRQAPGKGLEWVSVIYSGGSTYYADSVKGRFTISRDNSKNTLYLQMNSLRAEDTAVYYCARGNPYYYGDLQVNFDYWGQGTLVTVSS VL: QAVVTQEPSLTVSPGGTVTLTCASSTGAVTSGYYPNWFQQKPGQAPRALIYSTSNKHSWTPARFSGSLLGGKAALTLSGVQPEDEAEYYCLLYYGGAWVFGGGTKLTVL	no binding (tested: <0.025 or <0.05 RFU)
A-006 (scFv format) (scFv, V domains shown, scFv) VH: EVQLVESGGGLIQPGGSLRLSCAASGFTVSSNYMSWVRQAPGKGLEWVSVIYSGGSTYYADSVKGRFTISRDNSKNTLYLQMNSLRAEDTAVYYCARGNPYYYGDLQVNFDYWGQGTLVTVSS VL: QAVVTQEPSLTVSPGGTVTLTCASSTGAVTSGYYPNWFQQKPGQAPRPLIYSTSNKHSWTPARFSGSLLGGKAALTLSGVQPDDEAEYYCLLYYGGDWVFGGGTKLTVL	no binding (tested: <0.025 or <0.05 RFU)
A-013 (scFv format) (scFv, V domains shown, scFv) VH: EVQLVESGGGLIQPGGSLRLSCAASGFTVSSNYMSWVRQAPGKGLEWVSVIYSGGSTYYADSVKGRFTISRDNSKNTLYLQMNSLRAEDTAVYYCARGNPYYYGDLQVNFDYWGQGTLVTVSS VL: QAVVTQEPSLTVSPGGTVTLTCASSTGAVTSAYYPNWFQQKPGQAPRALIYSTSNKHSWTPARFSGSLLGGKAALTLSGVQPEDEADYYCLLYYGGAWVFGGGTKLTVL	no binding (tested: <0.025 or <0.05 RFU)
A-007 (scFv format) (scFv, V domains shown, scFv) VH: not shown VL: QSALTQPASVSGSPGQSITIACTGSSSDIGSFSYVSWYQQRPGKAPTLIIYGVNNRPLGVSRRFSGSKSGNTASLSISGLQAEDEADYYCSSYTRRSTVIFGGGTKLTVL	no binding (tested: <0.025 or <0.05 RFU)
A-008 (scFv format) (scFv, V domains shown, scFv) VH: QLQLQESGPGLVKPSETLSLTCTVSGGSISSSGYYWGWIRQPPGKGLEWIGSIYYSGSTYYNPSLKSRVTISVDTSKNQFSLKLSSVTAADTAVYYCARHRVRFGEFDAFDIWGQGTMVTVSS VL: QAVLTQPPSVSGAPGERVTLSCTGTSSNVGADFDVHWYQQFPGTAPRLLIFGSDNRPSGVPDRFSGSKSGTSASLAITGLQVEDEADYYCQAYDVRLSGWVFGGGTKLTVL	no binding (tested: <0.025 or <0.05 RFU)
A-009 (scFv format) (scFv, V domains shown, scFv) VH: QVQLVQSGAEVKKPGSSVKVSCKASGGTFSSYAISWVRQAPGQGLEWMGGIIPIFGTANYAQKFQGRVTITADESTSTAYMELSSLRSEDTAVYYCARGRGFGELYFDYWGQGTLVTVSS VL: ETTLTQSPATLSVSPGERATLSCRASQGVRSNIAWYQQKPGQAPRLLIYDSSTRATGIPARFSGSGSGTEFTLTISSLQSEDFAVYSCQQYKNWPRTFGQGTKVEIK	no binding (tested: <0.025 or <0.05 RFU)
A-010 (scFv format) (scFv, V domains shown, scFv) VH: QVQLVQSGAEVKKPGASVKVSCKASGYTFTSYGISWVRQAPGQGLEWMGWISAYNGNTNYAQKLQGRVTMTTDTSTSTAYMELRSLRSDDTAVYYCARVPAWSGQFDYWGQGTLVTVSS VL: QSALTQPASVSGSPGQSITISCTGSSSDVGGYNYVSWYQQYPGKAPKLMIYDVRSRPSGVSNRFSGSKSGNTASLTISGLQAEDEADYYCTSYTSSNTLVIFGGGTKVTVL	no binding (tested: <0.025 or <0.05 RFU)
A-011 (scFv format) (scFv, V domains shown, scFv) VH: QVQLVESGGGVVQPGRSLRLSCAASGFTFSSYAMHWVRQAPGKGLEWVAVISYDGSNKYYADSVKGRFTISRDNSKNTLYLQMNSLRAEDTAVYYCAEGGALNYYGMDVWGQGTTVTVSS VL: SSELTQDPGVSVALGQTVRITCQGDSLRHFYATWYQQKPGQAPILVIYGKNNRPSGIPDRFSGSSSEDTASLTITGAQAEDEADYYCQSRDPRNNHLIFGGGTKLIVL	no binding (tested: <0.025 or <0.05 RFU)
A-015 (scFv format) (scFv, V domains shown, scFv) VH: not shown VL: QPVLTQSPSASASLGASVKLTCTLSSGHTNYAIAWRQQQPGKAPRYLMLLNSDGSHTRGGGIPDRFSGSSSGAERYLTISSLQSEDEADYYCMIWHNNAWVFGGGTKLAVL	no binding (tested: <0.025 or <0.05 RFU)
A-016 (scFv format) (scFv, V domains shown, scFv) VH: QVQLQESGAEVKKPGASVKVSCKASGYTFTGYYMHWVRQAPGQGLEWMGGIIPIFGTANYAQKFQGRVTITADESTSTAYMELSSLRSEDTAVYYCAGAGMELTRSGAYYYYGMDVWGQGTTVTVSS VL: QSALTQPASVSGSPGQSITISCTGTSSDIGGYTFVSWYQQHPGKAPKVMIHDVNNRPSGISNRFSGSKSGNTASLTISGLQAEDEADYYCSSVTSTNTYVFGTGTKVTVL	no binding (tested: <0.025 or <0.05 RFU)
A-022 (scFv format) (scFv, V domains shown, scFv) VH: EVQLLESGPGLVKPSQTLSLTCTVSGGSISSGGYYWSWIRQHPGKGLEWIGYIYYSGSTYYNPSLKSRVTISVDTSKNQFSLKLSSVTAADTAVYYCARASRSTDYYFDYWGQGTLVTVSS VL: QPGLTQPPSMSYGLGQTATLTCTGNRNNIGDQGAAWLQQHQGHPPKLLSYRNNNGPSGISERLSASRSGNTASLTISGLQPEDEADYYCSAWDSSLRAWVFGGGTKLTVL	no binding (tested: <0.025 or <0.05 RFU)
A-023 (scFv format) (scFv, V domains shown, scFv) VH: QVQLVQSGAEVKKPGSSVKVSCKASGGTFSSYAISWVRQAPGQGLEWMGGIIPIFGTANYAQKFQGRVTITADESTSTAYMELSSLRSEDTAVYYCARPKYSSGWFYYYGMDVWGQGTTVTVSS VL: QSVLTQPPSVSAAPGQKVTISCSGSSSNIGNNYVSWYQQLPGTAPKLLIYDNNKRPSGIPDRFSGSKSGTSATLGITGLQTGDEADYYCGTWDSSLSVVFGGGTKLTVL	no binding (tested: <0.025 or <0.05 RFU)
A-024 (scFv format) (scFv, V domains shown) VH: QMQLVQSGAEVKKPGSSVKVSCKASGGTFSSYAISWVRQAPGQGLEWMGWISAYNGNTNYAQKLQGRVTMTTDTSTSTAYMELRSLRSDDTAVYYCASLGSYGYTGAFDIWGQGTMATVSS VL: QSALTQPASVSGSPGQSITISCTGTSSDVGGYNYVSWYQQHPGKAPKLMIYEVSNRPSGVSNRFSGSKSGNTASLTISGLQAEDEADYYCSSYTSSSTLVVFGGGTKLTVL	no binding (tested: <0.025 or <0.05 RFU)
A-025 (scFv format) (scFv, V domains shown, scFv) VH: QVQLVQSGAEVKKPGSSVKVSCKASGGTFSSYAISWVRQAPGQGLEWMGGIIPIFGTANYAQKFQGRVTITADESTSTAYMELTSLRSEDTAVYYCARGGWLRQNWFDPWGQGTLVTVSS VL: SSELTQDPAVSVALGQTVRITCQGDSLRSYYASWYQQKPGQAPVLVIYGKNNRPSGIPDRFSGSSSGNTASLTITGAQAEDEADYYCNSRDSSGNHPRVFGGGTKLTVL	no binding (tested: <0.025 or <0.05 RFU)
A-003 (scFv format) (scFv, V domains shown, scFv) VH: VQLVQSGAEVKKPGSSVKVSCKASGGTFSSYAISWVRQAPGQGLEWMGGIIPIFGTANYAQKFQGRVTITADESTSTAYMELSSLRSEDTAVYYCASPRIQLWAAGGFDYWGQGTLVTVSS VL: QSALTQPASVSGSPGQSITISCTGTSSDVGGYNLVSWYQQHPGKAPKLMIYDVSNRPSGVSNRFSGSKSGNTASLTISGLQAEDEADYYCSSFTTSTTLVFGGGTKLTVL	no binding (tested: <0.025 or <0.05 RFU)
A-027 (scFv format) (scFv, V domains shown, scFv) VH: QVQLVQSGAEVKKPGSSVKVSCKASGGTFSSYAISWVRQAPGQGLEWMGGIIPIFGTANYAQKFQGRVTITADKSTSTAYMELSSLRSEDTAVYYCARARGSTWGYFDYWGQGTLVTVSS VL: EIVLTQSPASLSLSPGERVTLSCRASQSVSNYLAWYQQKPGQAPRLLIYDASNRATGIPARFSGSGSGTDFTLTISSLEPEDFAVYYCQQRDNWPLTFGGGTKVEIK	no binding (tested: <0.025 or <0.05 RFU)
A-029 (scFv format) (scFv, V domains shown, scFv) VH: QVQLVQSGAEVKKPGSSVKVSCKASGGTFSSYAISWVRQAPGQGLEWMGGIIPIFGTANYAQKFQGRVTITADESTGTAYMELSSLRSEDTAVYYCARSYYYYYGMDVWGQGTTVTVSS VL: not shown	no binding (tested: <0.025 or <0.05 RFU)
A-033 (scFv format) (scFv, V domains shown, scFv) VH: QVQLVQSGAEVKKPGASVKVSCKASGYTFTSYGISWVRQAPGQGLEWMGWISAYNGNTNYAQKLQGRVTMTTDTSTSTAYMELRSLRSDDTAVYYCARDHSIVGATTFDYWGQGTLVTVSS VL: not shown	no binding (tested: <0.025 or <0.05 RFU)
A-034 (scFv format) (scFv, V domains shown, scFv) VH: QMQLVQSGGGLVKPGGSLRLSCAASGFTFSSYTMNWVRQAPGKGLEWVSSISSIGTYIYYADSVKGRFTISRDNAKNSLYLQMNSLRAEDTAVYYCARVLLSGSYYGYFDSWGQGTLVTVSS VL: QSVLTQPPSVSGAPGQRVTISCTGSSSNIGAGYDVHWYQQLPGTAPKLFIYGNSNRPSGVPDRFSGSKSGTSASLAITGLQAEDEADYYCQSYDSSLSGYVFGTGTKVTVL	no binding (tested: <0.025 or <0.05 RFU)

Reference: patent US20240010720A1 (IOMX THERAPEUTICS, published 2024)
